According to the DeepSol protein solubility set:

assay: soluble on expression in E. coli; label from the status in PepcDB or PDB records

Q: Which “soluble on expression in E. coli” value does the source give for “MRLLLAAPHSGAGKTTVSLALLLALRARGLRVQPFKVGPDYIDPTHLEKAAARRPYNLDGFFLDETGLLALFRHGARGADFALIEGVMGLFDGKDPRGEVGSTAQVARLLKAPVALVVDAKGMAGSIAPLALGFRDFHPGVRVVGVFANRVGSERHAEILKEALKAVGLPLLGWLPQDPALELPERHLGLVLAGEVAPPLEALRRAFRVDLEGVLRLAASAPPLPEARPFLPPRRPPRARVAYAWDKAFSFYYPEALELLEALGAELVPFSPLEDEALPKAHALLLGGGYPELFAERLSANVALREAIRRFPGPIVAECGGYMYLSQGLWVGERFFPMVGLVPGEARMAERPVLGYREVEALRDSPVARKGQAFKGHEFHYARLPASPSPAWRRLGGEEVEGYTDGRVLASFVHLYLPARPEGVERLLGLASRGKAAGASLEHHHHHH” here?
A: not soluble

Q: Which “soluble on expression in E. coli” value does the source give for “MRLRSMTKVLVLGARFGGLSAAYALKRLAGNKAEIKVINNTRFSYFRPALPHVATGVINENDVMVDLTKALPEKRINFQQGTVEKIDASGGLVYYTKPDGDKAEEDYDYLIIALGAHLGTELVKGWDKYGYSVCELDYALKLREKLKDFKGGTIAIGSGLFYQGKSPKPKVPENYVPVADAACEGPIFEMSLMLSGYFKKKGMLNKVKFVVFSPGEYLSDLSTMSRKIVREMYKQMGIELVDNFRIKEIRENEIADEAGKTIKADLTILIPPYTGNPALKNSTPDLIDDGGFVPTDLNMVSINYDNVYAVGDANSLTVPKLGYLAVKTGNIAAQHLATRLGVQVKVDQYYPTIICVADNPFEGFGIAVKDDTWYGGTTSIAAPSPINHIKKELFHKYFIWTKGDMALEKFLASWLEHHHHHH” here?
A: soluble

Q: Which “soluble on expression in E. coli” value does the source give for “MRLVLSSLIVIAGLLSSQATAATAPEQTASADIRDSGFVYCVSGQVNTFNPQKASSGLIVDTLAAQLYDRLLDVDPYTYRLVPELAESWEVLDNGATYRFHLRRDVSFQKTAWFTPTRKLNADDVVFTFQRIFDRRHPWHNINGSSFPYFDSLQFADNVKSVRKLDNNTVEFRLTQPDASFLWHLATHYASVMSAEYAAQLSRKDRQELLDRQPVGTGPFQLSEYRAGQFIRLQRHDGFWRGKPLMPQVVVDLGSGGTGRLSKLLTGECDVLAWPAASQLTILRDDPRLRLTLRPGMNIAYLAFNTDKPPLNNPAVRHALALSINNQRLMQSIYYGTAETAASILPRASWAYDNDAKITEYNPQKSREQLKALGIENLTLHLWVPTSSQAWNPSPLKTAELIQADMAQVGVKVVIVPVEGRFQEARLMDMNHDLTLSGWATDSNDPDSFFRPLLSCAAINSQTNFAHWCNPEFDSVLRKALSSQQLASRIEAYEEAQNILEKELPILPLASSLRLQAYRYDIKGLVLSPFGNASFAGVSREKHEEVKKP” here?
A: not soluble

Q: For “MRNELNSNEYNLMASRQSRKILTGTLAAMENVKIGQDENVDCGVVFYDEFKILIPIREMNVSREDKRVIRSMIGAEIDFIVMEFDDENRTAIASRKEAMELRKNLELKKHKVGEKIFVRVTSVGRNNCRVDCYGIEYRVPINEIDYGYIDKVDKYVQVGDVVPAIIKELDIDNNIVVVSIKEAKEDPYLGIVKSLNKGGEYLGVVTGIKDYGIFLTIRKGVNCLCPFPNWANFSPAVGEKFVVRIKSINYDEKKINANLMRPINQRNKYNPTWGLGLEHHHHHH”, which “soluble on expression in E. coli” value is on record?
A: soluble

Q: For “MRNKPFYLLCAFLWLAVSHALAADSTITIRGYVRDNGCSVAAESTNFTVDLMENAAKQFNNIGATTPVVPFRILLSPCGNAVSAVKVGFTGVADSHNANLLALENTVSAASGLGIQLLNEQQNQIPLNAPSSAISWTTLTPGKPNTLNFYARLMATQVPVTAGHINATATFTLEYQ”, which “soluble on expression in E. coli” value is on record?
A: not soluble

Q: With “MRNPFERMPTVLTADELIDKAFRRAEKAASSFKPRGNKVKKARLREELRVRTVSNVVRDNLRKVLERTPGLSTLPKFYQELVDVLVDRDTFHKAMAGIDWAIRIIRELEERYVERIRYSNDPNEIAELRRQFYGRVASVLRDIDDRLRYLNKAREVLKDLPVVDLEIPTVVIAGHPNVGKSTLLKALTTAKPEIASYPFTTRGINVGQFEDGYFRYQIIDTPGLLDRPISERNEIEKQAILALRYLGNLIIYIFDPSEHCGFPLEEQIHLFEEVHGEFKDLPFLVVINKIDVADEENIKRLEKFVKEKGLNPIKISALKGTGIDLVKEEIIKTLRPLAEKVAREKIERELRRYRSYL” as the sequence, how does the “soluble on expression in E. coli” value read?
A: soluble

Q: With “MRPAGRSNNQVRPVTLTRNYTKHAEGSVLVEFGDTKVLCTASIEEGVPRFLKGQGQGWITAEYGMLPRSTHTRNAREAAKGKQGGRTMEIQRLIARALRAAVDLKALGEFTITLDCDVLQADGGTRTASITGACVALVDALQKLVENGKLKTNPMKGMVAAVSVGIVNGEAVCDLEYVEDSAAETDMNVVMTEDGRIIEVQGTAEGEPFTHEELLILLALARGESNPL” as the sequence, how does the “soluble on expression in E. coli” value read?
A: soluble

Q: With “MRPCIVIPIYNHKDVIGLTVARLVTHGLPIFIVDDGSDAPTQAVLAALAGQHAGCVTLLRLPVNGGKGAAVMAGLRAARSDGFTHALQIDADGQHDAADVPTFMDAARDHPEAVILGQPVYDATVPKARLYGRYLTHAWVWIETLSFDIRDSMCGFRVYPLALACALIDEVALPTRMDFDIEILVRLHWRRTRFVAIPTRVTYAADGVSHFDVLWDNIRISQSHARLVAGMLVRLPLLLANKARPRQRADQAAAGKAHWWRIAERGSQLGMRLLALSCRLLGTRITALWLYPIVAYFLLTGRAARQASRQYFERLAAASAQDRTPAPGWRSAYRHMIAFAQSGLDKLAAWSGHVSPHRVRFDDPAPFEALMASGRGALVIGAHLGNLEMTRALATRHGQVKVTAVVYIEHARRFNRVLAGAHPEFATHLLEVSDFGPATAMRMQERIDAGELLVIVGDRVPATEMGRTVEATFLGAPARFAQGPYILAHALGCPVYLFFCLKTRQDYTLYFEPFAERIELPRHARATHLATLAQRYASRLEHHCRKAPFQWFNFFDFWARPKKDAHGLEHHHHHH” as the sequence, how does the “soluble on expression in E. coli” value read?
A: not soluble

Q: For “MRPDDKYHEKQAQVEATKLKQKVEALSPGDRQQIYEKGLELRSQQSKPQDASCLPALKVSDIEPTIPVTELDVVLTAGDIPVQYCAQPTNGMVYFRAFSSLNTLPEELRPYVPLFCSVLTKLGCGLLDYREQAQQIELKTGGMSASPHVLPDDSHMDTYEQGVLFSSLCLDRNLPDMMQLWSEIFNNPCFEEEEHFKVLVKMTAQELANGIPDSGHLYASIRAGRTLTPAGDLQETFSGMDQVRLMKRIAEMTDIKPILRKLPRIKKHLLNGDNMRCSVNATPQQMPQTEKAVEDFLRSIGRSKKERRPVRPHTVEKPVPSSSGGDAHVPHGSQVIRKLVMEPTFKPWQMKTHFLMPFPVNYVGECIRTVPYTDPDHASLKILARLMTAKFLHTEIREKGGAYGGGAKLSHNGIFTLYSYRDPNTIETLQSFGKAVDWAKSGKFTQQDIDEAKLSVFSTVDAPVAPSDKGMDHFLYGLSDEMKQAHREQLFAVSHDKLLAVSDRYLGTGKSTHGLAILGPENPKIAKDPSWIIR”, which “soluble on expression in E. coli” value is on record?
A: not soluble

Q: With “MRPIPEGYEAVFETVVTPEMTVRFEELGPVHPVYATYWMVKHMELAGRKIILPFLEEGEEGIGSYVEARHLASALPGMRVRVVARHEKTEGNRVYARVEAYNELGDLIGVGRTEQVILPKAKVEALFRRLKERWEAERSPS” as the sequence, how does the “soluble on expression in E. coli” value read?
A: soluble

Q: With “MRPMTHVPVLYQEALDLLAVRPGGVYVDATLGGAGHARGILERGGRVIGLDQDPEAVARAKGLHLPGLTVVQGNFRHLKRHLAALGVERVDGILADLGVSSFHLDDPSRGFSYQKEGPLDMRMGLEGPTAKEVVNRLPLEALARLLRELGEEPQAYRIARAIVAAREKAPIETTTQLAEIVRKAVGFRRAGHPARKTFQALRIYVNDELNALKEFLEQAAEVLAPGGRLVVIAFHSLEDRVVKRFLRESGLKVLTKKPLVPSEKEAAQNPRARSAKLRAAEKEAP” as the sequence, how does the “soluble on expression in E. coli” value read?
A: soluble

Q: With “MRPMTIDIDELAFALDTPGIDHYLDLYSGKVLLISAEAPDPELDALLENEPERLLLIDPLSTTQSLGLMQDFLREVEEPHAYATLANALQSRKPFKAFKHSLMEYPELLQDWYRYQNERLREWALDWLEDNDIQPAARQSPTSLLPPPGKPFA” as the sequence, how does the “soluble on expression in E. coli” value read?
A: not soluble

Q: With “MRPVLLLCCLFLSATAQAEDCSPQTSVGSWCELPLAALHPTQQNVGLLQVEDDQAKLAGKKPKALERYLRKKEIPVVIGPGGRFYLTDRHHLSSALWRLDPKQGVPVKVIGRLPQASDFWEKMQENHWVWLHDARGAEIPPEALPDALAGLGDDPYRALAGYAEDENAFDKDRQSYFIEFHWARYFGERMHWRPISRATLPDDLKQALRLACEPAARELPGYRQDCPHKLAAALEHHHHHH” as the sequence, how does the “soluble on expression in E. coli” value read?
A: not soluble

Q: For “MRPYKRVLIKLSGGALADQTGNSFNSKRLEHIANEILSIVDLGIEVSIVIGGGNIFRGHLAEEWGIDRVEADNIGTLGTIINSLMLRGVLTSKTNKEVRVMTSIPFNAVAEPYIRLRAVHHLDNGYIVIFGGGNGQPFVTTDYPSVQRAIEMNSDAILVAKQGVDGVFTSDPKHNKSAKMYRKLNYNDIVRQNIQVMDQAALLLARDYNLPAHVFNFDEPGVMRRICLGEHVGTLINDDVSMLVREKLEHHHHHH”, which “soluble on expression in E. coli” value is on record?
A: not soluble

Q: With “MRQTNNKESTMKPTADILASIIEEVRPLTSKGIVADYIPALAKVPSDKLGIAVFTNQGEVITAGDAQEGFSIQSISKVLSLTLAMGLYQPDELWSRVGKEPSGQAFNSLIQLEMEQGIPRNPFINAGAIVVCDMLQSRLSAPRQRLLEFVRQLSGEPQIAYDKVVAASEMMHSDRNAAIAYLMRSFGNFHNEVIPVLHNYFHACALKMSCVELAKTFSYLANKGVSVVTGETVITPTQSKQTNALLATCGLYDGAGEFAYRVGMPGKSGVGGGIIAVVPGEMTIAVWSPALDQSGNSLAGTRALELLAQRIGRSIFLEHHHHHH” as the sequence, how does the “soluble on expression in E. coli” value read?
A: soluble

Q: With “MRQVDFFTLRLFLSAVEEGQIGRAALRENIAPSAATKRIQELEDVVGLRLLERTPKGVILSPAGEVLVRHIRQIFTNVDELRAELSAFSEGVRGEVSVASARSIIAPYLAHEFGAYIRDYPLVDLIVREVENAAIVQAVAQGDADIGVFAAAPALDLSGVDVMPYRQDRMVVVMSHGHRLAQRQSVTFEDLLSENLIVPAALHMALRTAADRLGREFEPKYGVTSAGVAISLAQEGLGVTIQPECLLDLKVFEHAVGVELAESWANRSIHIATARGRAAGPAANLLLKQLLDRPRALSSVSD” as the sequence, how does the “soluble on expression in E. coli” value read?
A: not soluble

Q: For “MRRDQKMTELNNQIRSLQEEHGKEKLLAAATKILGKKVPTDYVRVLDPLELQASLQQIDAAVQDVLEKGKAREEAYGEKASLIKQKVKLKTAVELKEAEAFMQIQGEGRNQFAYVNDQKVALTNDTLRDAYRLHYSKEERQQLTDVEQELASIDIKIYQTKDAWETAKESADLVKAKAYVQANLLKFLA”, which “soluble on expression in E. coli” value is on record?
A: not soluble

Q: Which “soluble on expression in E. coli” value does the source give for “MRRRENMDVNKAIRTAVDTGKVILGSKRTIKFVKHGEGKLVVLAGNIPKDLEEDVKYYAKLSNIPVYQHKITSLELGAVCGKPFPVAALLVLDEGLSNIMELVEKKEGGE” here?
A: soluble

Q: Which “soluble on expression in E. coli” value does the source give for “MRRVQSNTLDVGIDVHLKNWSTAILSKHSVLRRFLQVDCEGPTLISYIVAKHLAHASRGTISPYRTNGSAYGGFAIYMYLLIKMR” here?
A: not soluble

Q: For “MRSDVVARAMRLIADGTVDRDGVSGLAAQLGYTIRQLERLLQAVVGAGPLALARAQRMQTARVLIETTNLPFGDVAFAAGFSSIRQFNDTVRLACDGTPTALRARAAARFESATASAGTVSLRLPVRAPFAFEGVFGHLAATAVPGCEEVRDGAYRRTLRLPWGNGIVSLTPAPDHVRCLLVLDDFRDLMTATARCRRLLDLDADPEAIVEALGADPDLRAVVGKAPGQRIPRTVDEAEFAVRAVLAQQVSTKAASTHAGRLVAAYGRPVHDRHGALTHTFPSIEQLAEIDPGHLAVPKARQRTINALVASLADKSLVLDAGCDWQRARGQLLALPGVGPWTAEVIAMRGLGDPDAFPASDLGLRLAAKKLGLPAQRRALTVHSARWRPWRSYATQHLWTTLEHPVNQWPPQEKIALEHHHHHH”, which “soluble on expression in E. coli” value is on record?
A: not soluble
